The values that follow come from patent publication US20150216933A1, “HEMATOPOIETIC STEM CELL GROWTH FACTOR” (DUKE UNIVERSITY, priority 2008, published 2015).

What all share (experiment): qRT-PCR of KSL cells after culture with TSF+PTN
Holding throughout (format): cell-based, mouse

One assay has as its system GFI-1. The note with it: TSF+100 ng/mL PTN x 7 days vs TSF alone. How it is done:
(§1) FIGS. 7A and 7B. […] (FIG. 7B) BM KSL cells were placed in culture with TSF (black bars) or TSF+100 ng/mL PTN (gray bars)×7 days and KSL cells were then isolated via FACS-sorting at day +7 for qRT-PCR analysis and comparison of gene expression. […] All comparisons were one tailed t tests.
(§2) RT-PCR analyses of PTN in ECs and HES-1, GFI-1 and PTEN in BM KSL cells and FACS-sorted KSL cells following culture were performed using a 2-step RTPCR reaction as previously described (Chute et al, Proc Natl Acad Sci USA 103, 11707-12 (2006)). Conditioned medium (CM) was generated from HUBECs and non-brain ECs as previously described (Chute et al, Blood 100:4433-9 (2002), Chute et al, Blood 105: 576-83 (2005)) and ELISA for PTN was performed following manufacturer's guidelines.
(§3) In order to determine a potential mechanism through which PTN mediates HSC expansion, an examination was made as to whether PTN altered pathways that are known to be affected by RPTPβ/ζ (Meng et al, Proc Natl Acad Sci USA 97: 2603-8 (2000), Stoica et al, J Biol Chem 276:16772-9 (2001), Landgraf et al, J Biol Chem 283:25036-45 (2008), Deuel et al, Arch Biochem Biophys 397:162-71 (2002)). Canonical PTN signaling occurs via binding and inactivation of RPTPβ/ζ (Meng et al, Proc Natl Acad Sci USA 97: 2603-8 (2000)), which can facilitate the tyrosine phosphorylation of several intracellular substrates, including Akt and β-catenin (Souttou et al, J Biol Chem 272:19588-93 (1997), Gu et al, FEBS Lett 581:382-8 (2007)). […] BM 34^− KSL cells were treated with TSF with and without 100 ng/mL PTN in the presence and absence of 10 μM wortmannin, a PI 3-kinase inhibitor (Souttou et al, J Biol Chem 272:19588-93 (1997)).

Another assay has as its system HES-1. The note with it: TSF+100 ng/mL PTN x 7 days vs TSF alone. The protocol: as §1, §2, §3
In another assay the test system is PTEN. The note with it: HSCs following PTN exposure. The protocol: as §1, §2, §3

B1: PTN: Pleiotrophin, heparin binding growth factor; recombinant human PTN purchased from R&D systems (protein, UniProt P21246 33-168, looked up)
Pleiotrophin: GKKEKPEKKVKKSDCGEWQWSVCVPTSGDCGLGTREGTRTGAECKQTMKTQRCKIPCNWKKQFGAECKYQFQAWGECDLNTALKTRTGSLKRALHNAECQKTVTISKPCGKLTKPKPQAESKKKKKEGKKQEKMLD
For the molecule B1, in the assay on GFI-1, the GFI-1 expression entry is reported as “upregulation”. Further, in the assay with HES-1, the HES-1 expression result is reported as “upregulation”. In addition, the “expression of PTEN” value in the assay on PTEN was “down-modulated”.
